The record followed here is the supplement of paper PMC5998384.

Data set [1] relates to HeLa Kyoto. Nature of the data set: solubility in G1/S (NP-40 vs SDS abundance) (log2 ratio); higher = more soluble. Particulars: cell cycle stage: G1/S.
Data set [2] has as its system HeLa Kyoto. Nature of the data set: melting temperature (median over replicates), in situ; higher = more thermally stable.
In data set [3] the test system is HeLa Kyoto. Nature of the data set: solubility change mitosis vs G1/S (difference of NP-40 vs SDS log2 ratios) (log2 ratio difference); higher = more soluble in mitosis.
In data set [4] the test system is HeLa Kyoto. Nature of the data set: thermal stability score vs G1/S (z-score of summed log2 fold changes over temperatures); higher = more thermally stable than in G1/S.
Where [5] appears, read: cell cycle stage: early G1 (4.5 h after nocodazole release).
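Throughout, for melting temperature (median over replicates), in situ: HeLa Kyoto cells synchronized by double thymidine or nocodazole block, proteins quantified by TMT10plex mass spectrometry, three independent biological replicates.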
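Throughout, for solubility change mitosis vs G1/S (difference of NP-40 vs SDS log2 ratios): synchronized HeLa Kyoto cells (double thymidine block for G1/S, nocodazole release for mitosis), protein amounts in NP-40 versus SDS lysates quantified by mass spectrometry, three biological replicates.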
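Throughout, for solubility in G1/S (NP-40 vs SDS abundance): HeLa Kyoto cells arrested at G1/S by double thymidine block, proteins quantified by TMT10plex mass spectrometry in mild NP-40 versus SDS extracts, three biological replicates.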
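Throughout, for thermal stability score vs G1/S (z-score of summed log2 fold changes over temperatures): synchronized HeLa Kyoto cells, proteins quantified by TMT10plex mass spectrometry, three biological replicates, mitosis taken 0.5 h after nocodazole release, G1/S directly after double thymidine block.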

As to “MGKLRRRYNIKGRQQAGPGPSKGPPEPPPVQLELEDKDTLKGVDASNALVLPGKKKKKTKAPPLSKKEKKPLTKKEKKVLQKILEQKEKKSQRAEMLQKLSEVQASEAEMRLFYTTSKLGTGNRMYHTKEKADEVVAPGQEKISSLSGAHRKRRRWPSAEEEEEEEEESESELEEESELDEDPAAEPAEAGVGTTVAPLPPAPAPSSQPVPAGMTVPPPPAAAPPLPRALAKPAVFIPVNRSPEMQEERLKLPILSEEQVIMEAVAEHPIVIVCGETGSGKTTQVPQFLYEAGFSSEDSIIGVTEPRRVAAVAMSQRVAKEMNLSQRVVSYQIRYEGNVTEETRIKFMTDGVLLKEIQKDFLLLRYKVVIIDEAHERSVYTDILIGLLSRIVTLRAKRNLPLKLLIMSATLRVEDFTQNPRLFAKPPPVIKVESRQFPVTVHFNKRTPLEDYSGECFRKVCKIHRMLPAGGILVFLTGQAEVHALCRRLRKAFPPSRARPQEKDDDQKDSVEEMRKFKKSRARAKKARAEVLPQINLDHYSVLPAGEGDEDREAEVDEEEGALDSDLDLDLGDGGQDGGEQPDASLPLHVLPLYSLLAPEKQAQVFKPPPEGTRLCVVATNVAETSLTIPGIKYVVDCGKVKKRYYDRVTGVSSFRVTWVSQASADQRAGRAGRTEPGHCYRLYSSAVFGDFEQFPPPEITRRPVEDLILQMKALNVEKVINFPFPTPPSVEALLAAEELLIALGALQPPQKAERVKQLQENRLSCPITALGRTMATFPVAPRYAKMLALSRQHGCLPYAITIVASMTVRELFEELDRPAASDEELTRLKSKRARVAQMKRTWAGQGASLKLGDLMVLLGAVGACEYASCTPQFCEANGLRYKAMMEIRRLRGQLTTAVNAVCPEAELFVDPKMQPPTESQVTYLRQIVTAGLGDHLARRVQSEEMLEDKWRNAYKTPLLDDPVFIHPSSVLFKELPEFVVYQEIVETTKMYMKGVSSVEVQWIPALLPSYCQFDKPLEEPAPTYCPERGRVLCHRASVFYRVGWPLPAIEVDFPEGIDRYKHFARFLLEGQVFRKLASYRSCLLSSPGTMLKTWARLQPRTESLLRALVAEKADCHEALLAAWKKNPKYLLAEYCEWLPQAMHPDIEKAWPPTTVH [DHX37]”, the “solubility in G1/S (log2)” value in the data set on HeLa Kyoto [1] is -1. In the data set on HeLa Kyoto [2] (cell cycle stage: G1/S), the melting temperature was 50.3 °C. Further, in the data set on HeLa Kyoto [3], the “solubility change mitosis (log2)” value was found to be 0.635. In addition, the results for the thermal stability score in the data set on HeLa Kyoto [4] (setting [5]) and in the data set on HeLa Kyoto [4] (cell cycle stage: mitosis) were 0.32 and 0.922, respectively.

With “MGKRQHQKDKMYITCAEYTHFYGGKKPDLPQTNFRRLPFDHCSLSLQPFVYPVCTPDGIVFDLLNIVPWLKKYGTNPSNGEKLDGRSLIKLNFSKNSEGKYHCPVLFTVFTNNTHIVAVRTTGNVYAYEAVEQLNIKAKNFRDLLTDEPFSRQDIITLQDPTNLDKFNVSNFYHVKNNMKIIDPDEEKAKQDPSYYLKNTNAETRETLQELYKEFKGDEILAATMKAPEKKKVDKLNAAHYSTGKVSASFTSTAMVPETTHEAAAIDEDVLRYQFVKKKGYVRLHTNKGDLNLELHCDLTPKTCENFIRLCKKHYYDGTIFHRSIRNFVIQGGDPTGTGTGGESYWGKPFKDEFRPNLSHTGRGILSMANSGPNSNRSQFFITFRSCAYLDKKHTIFGRVVGGFDVLTAMENVESDPKTDRPKEEIRIDATTVFVDPYEEADAQIAQERKTQLKVAPETKVKSSQPQAGSQGPQTFRQGVGKYINPAATKRAAEEEPSTSATVPMSKKKPSRGFGDFSSW [PPIL2]”, the “solubility in G1/S (log2)” value in the data set on HeLa Kyoto [1] turned out to be 0.00272. Besides, the melting temperature with HeLa Kyoto [2] (cell cycle stage: G1/S) was found to be 47.5 °C; in the data set on HeLa Kyoto [2] (cell cycle stage: mitosis), 48.4 °C. In addition, the “solubility change mitosis (log2)” value with HeLa Kyoto [3] is -0.019. The values for the thermal stability score in the data set with HeLa Kyoto [4] (setting [5]) and with HeLa Kyoto [4] (cell cycle stage: mitosis) were 0.984 and 1.06, respectively.

For the sequence “MGKSESQMDITDINTPKPKKKQRWTPLEISLSVLVLLLTIIAVTMIALYATYDDGICKSSDCIKSAARLIQNMDATTEPCTDFFKYACGGWLKRNVIPETSSRYGNFDILRDELEVVLKDVLQEPKTEDIVAVQKAKALYRSCINESAIDSRGGEPLLKLLPDIYGWPVATENWEQKYGASWTAEKAIAQLNSKYGKKVLINLFVGTDDKNSVNHVIHIDQPRLGLPSRDYYECTGIYKEACTAYVDFMISVARLIRQEERLPIDENQLALEMNKVMELEKEIANATAKPEDRNDPMLLYNKMTLAQIQNNFSLEINGKPFSWLNFTNEIMSTVNISITNEEDVVVYAPEYLTKLKPILTKYSARDLQNLMSWRFIMDLVSSLSRTYKESRNAFRKALYGTTSETATWRRCANYVNGNMENAVGRLYVEAAFAGESKHVVEDLIAQIREVFIQTLDDLTWMDAETKKRAEEKALAIKERIGYPDDIVSNDNKLNNEYLELNYKEDEYFENIIQNLKFSQSKQLKKLREKVDKDEWISGAAVVNAFYSSGRNQIVFPAGILQPPFFSAQQSNSLNYGGIGMVIGHEITHGFDDNGRNFNKDGDLVDWWTQQSASNFKEQSQCMVYQYGNFSWDLAGGQHLNGINTLGENIADNGGLGQAYRAYQNYIKKNGEEKLLPGLDLNHKQLFFLNFAQVWCGTYRPEYAVNSIKTDVHSPGNFRIIGTLQNSAEFSEAFHCRKNSYMNPEKKCRVW [MME]”, in the data set with HeLa Kyoto [1], the “solubility in G1/S (log2)” value was -0.0691. In addition, the melting temperature in the data set on HeLa Kyoto [2] (cell cycle stage: G1/S) was 53 °C; in the data set with HeLa Kyoto [2] (cell cycle stage: mitosis) it was 55.9 °C. For the same sequence, in the data set with HeLa Kyoto [3], the “solubility change mitosis (log2)” value is -0.0403. Further, the thermal stability score in the data set on HeLa Kyoto [4] (setting [5]) is -0.835; in the data set with HeLa Kyoto [4] (cell cycle stage: mitosis) it was -0.832.

For “MGKVNVAKLRYMSRDDFRVLTAVEMGMKNHEIVPGSLIASIASLKHGGCNKVLRELVKHKLIAWERTKTVQGYRLTNAGYDYLALKTLSSRQVVESVGNQMGVGKESDIYIVANEEGQQFALKLHRLGRTSFRNLKNKRDYHKHRHNVSWLYLSRLSAMKEFAYMKALYERKFPVPKPIDYNRHAVVMELINGYPLCQIHHVEDPASVYDEAMELIVKLANHGLIHGDFNEFNLILDESDHITMIDFPQMVSTSHPNAEWYFDRDVKCIKDFFMKRFSYESELFPTFKDIRREDTLDVEVSASGYTKEMQADDELLHPLGPDDKNIETKEGSEFSFSDGEVAEKAEVYGSENESERNCLEESEGCYCRSSGDPEQIKEDSLSEESADARSFEMTEFNQALEEIKGQVVENNSVTEFSEEKNRTENYNRQDGQRVQGGVPAGSDEYEDECPHLIALSSLNREFRPFRDEENVGAMNQYRTRTLSITSSGSAVSCSTIPPELVKQKVKRQLTKQQKSAVRRRLQKGEANIFTKQRRENMQNIKSSLEAASFWGE [RIOK2]”, the “solubility in G1/S (log2)” value in the data set with HeLa Kyoto [1] is -0.263. Also, the melting temperature with HeLa Kyoto [2] (cell cycle stage: G1/S) was found to be 52.5 °C; in the data set on HeLa Kyoto [2] (cell cycle stage: mitosis), 52 °C. Besides, the “solubility change mitosis (log2)” value with HeLa Kyoto [3] is -0.21. Moreover, the thermal stability score was -0.571 in the data set on HeLa Kyoto [4] (setting [5]) and -0.171 in the data set with HeLa Kyoto [4] (cell cycle stage: mitosis).
